# Target: lambda repressor cI comprising a TEV protease cleavage site (ENLYFQ(G/S)) within the interdomain linker (UniProt P03034)
# Assay: cell-based or functional assay
# TEV protease (wild type), sequence (P04517 2038-2279): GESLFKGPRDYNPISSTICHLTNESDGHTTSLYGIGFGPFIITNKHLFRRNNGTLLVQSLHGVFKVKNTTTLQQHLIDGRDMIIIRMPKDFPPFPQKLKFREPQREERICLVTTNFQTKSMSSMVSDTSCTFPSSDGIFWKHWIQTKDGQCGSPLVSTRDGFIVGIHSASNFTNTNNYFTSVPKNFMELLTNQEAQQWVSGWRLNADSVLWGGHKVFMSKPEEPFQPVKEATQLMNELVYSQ
substance,measurement,value
TEV protease (wild type) (from UniProt P04517 2038-2279) (enzyme),gene expression from the pR promoter driving pIII and luciferase,> 100 fold
